Patent US20180251563A1

B1: SEQ ID NO 35 (designed binder)
chain: MGSWSEFYNRLDAIESRLLALGGSEAELALFEIQIARFEKVLQAYKGKGNPEVEALRGEARAIFAELYAYRHN
B2: SEQ ID NO 36 (designed binder)
chain: MGSWYEFYNRLYAIEIRLYALGGSEAELAAFEKEIAAFESELQAYKGKGNPEVERLRVRAAKIRVILQAYRHN
B3: SEQ ID NO 37 (designed binder)
chain: MGSWLWFKIFLAEIKYFLEALGGSEAELAAFDFEIHAFHVELFAYKGKGNPEVEVLREVAAEIRWDLQAYRHN

These binders were tested against KIR-Fc (assay: phage ELISA, target-Fc against non-specific control).

Point of comparison: B1, ELISA ratio (target to background) 8.4. Against it:
- B2 — lower, 4.24
- B3 — lower, 4.17
